Assay results as given in PMC11369088.

Biological target: C-terminal FLAG-tag TEX264 (UniProt Q9Y6I9)
Assay: co-IP; FLAG co-IP of FLAG-tagged ER-phagy receptor from HEK293 Tg-NLuc cells in TNI buffer (50 mM Tris pH 7.5, 150 mM NaCl, 0.5% IGEPAL CA-630), four washes; Tg-NLuc on the resin read by nano-glo luciferase assay; against GFP control

Sequence of UniProt Q9Y6I9 (Q9Y6I9 whole entry): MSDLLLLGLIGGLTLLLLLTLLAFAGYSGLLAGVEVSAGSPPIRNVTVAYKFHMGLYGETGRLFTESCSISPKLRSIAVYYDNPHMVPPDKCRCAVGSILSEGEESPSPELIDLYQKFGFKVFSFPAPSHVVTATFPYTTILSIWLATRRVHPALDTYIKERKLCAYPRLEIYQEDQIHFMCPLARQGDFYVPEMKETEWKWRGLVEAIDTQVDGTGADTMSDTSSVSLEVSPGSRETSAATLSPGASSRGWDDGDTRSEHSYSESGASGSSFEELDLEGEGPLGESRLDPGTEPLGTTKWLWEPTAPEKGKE

Question: With “nanoluciferase-tagged thyroglobulin C1264R (C1264R Tg-NLuc), P01266 20-2768” as the substance, how does the fold interaction against A2234D Tg read?
Answer: The fold interaction against A2234D Tg was 2 fold.

Question: And the fold interaction against WT Tg?
Answer: The fold interaction against WT Tg was 3 fold.
